Results as given in paper PMC2173217 (The Journal of Cell Biology, 2002).
Where two headings read alike, the source gives them in different places.

B1: Sec13/31p (complex, S. cerevisiae)
chain 1: MVVIANAHNELIHDAVLDYYGKRLATCSSDKTIKIFEVEGETHKLIDTLTGHEGPVWRVDWAHPKFGTILASCSYDGKVLIWKEENGRWSQIAVHAVHSASVNSVQWAPHEYGPLLLVASSDGKVSVVEFKENGTTSPIIIDAHAIGVNSASWAPATIEEDGEHNGTKESRKFVTGGADNLVKIWKYNSDAQTYVLESTLEGHSDWVRDVAWSPTVLLRSYLASVSQDRTCIIWTQDNEQGPWKKTLLKEEKFPDVLWRASWSLSGNVLALSGGDNKVTLWKENLEGKWEPAGEVHQ
chain 2: MVKLAEFSRTATFAWSHDKIPLLVSGTVSGTVDANFSTDSSLELWSLLAADSEKPIASLQVDSKFNDLDWSHNNKIIAGALDNGSLELYSTNEANNAINSMARFSNHSSSVKTVKFNAKQDNVLASGGNNGEIFIWDMNKCTESPSNYTPLTPGQSMSSVDEVISLAWNQSLAHVFASAGSSNFASIWDLKAKKEVIHLSYTSPNSGIKQQLSVVEWHPKNSTRVATATGSDNDPSILIWDLRNANTPLQTLNQGHQKGILSLDWCHQDEHLLLSSGRDNTVLLWNPESAEQLSQFPARGNWCFKTKFAPEAPDLFACASFDNKIEVQTLQNLTNTLDEQETETKQQESETDFWNNVSREESKEKPTVFHLQAPTWYGEPSPAAHWAFGGKLVQITPDGKGVSITNPKISGLESNTTLSEALKTKDFKPLINQRLVKVIDDVNEEDWNLLEKLSMDGTEEFLKEALAFDNDESDAQDDANNEKEDDGEEFFQQIETNFQPEGDFSLSGNIEQTISKNLVSGNIKSAVKNSLENDLLMEAMVIALDSNNERLKESVKNAYFAKYGSKSSLSRILYSISKREVDDLVENLDVSQWKFISKAIQNLYPNDIAQRNEMLIKLGDRLKENGHRQDSLTLYLAAGSLDKVASIWLSEFPDLEDKLKKDNKTIYEAHSECLTEFIERFTVFSNFINGSSTINNEQLIAKFLEFINLTTSTGNFELATEFLNSLPSDNEEVKTEKARVLIASGKSLPAQNPATATTSKAKYTNAKTNKNVPVLPTPGMPSTTSIPSMQAPFYGMTPGASANALPPKPYVPATTTSAPVHTEGKYAPPSQPSMASPFVNKTNSSTRLNSFAPPPNPYATATVPATNVSTTSIPQNTFAPIQPGMPIMGDYNAQSSSIPSQPPINAVSGQTPHLNRKANDGWNDLPLKVKEKPSRAKAVSVAPPNILSTPTPLNGIPANAASTMPPPPLSRAPSSVSMVSPPPLHKNSRVPSLVATSESPRASISNPYAPPQSSQQFPIGTISTANQTSNTAQVASSNPYAPPPQQRVATPLSGGVPPAPLPKASNPYAPTATTQPNGSSYPPTGPYTNNHTMTSPPPVFNKPPTGPPPISMKKRSNKLASIEQNPSQGATYPPTLSSSASPLQPSQPPTLASQVNTSAENVSHEIPADQQPIVDFLKEELARVTPLTPKEYSKQLKDCDKRLKILFYHLEKQDLLTQPTIDCLHDLVALMKEKKYKEAMVIHANIATNHAQEGGNWLTGVKRLIGIAEATLN
B2: Sar1p (enzyme)
chain: not shown
B3: Sec23/24p (complex, S. cerevisiae)
chain 1: MDFETNEDINGVRFTWNVFPSTRSDANSNVVPVGCLYTPLKEYDELNVAPYNPVVCSGPHCKSILNPYCVIDPRNSSWSCPICNSRNHLPPQYTNLSQENMPLELQSTTIEYITNKPVTVPPIFFFVVDLTSETENLDSLKESIITSLSLLPPNALIGLITYGNVVQLHDLSSETIDRCNVFRGDREYQLEALTEMLTGQKPTGPGGAASHLPNAMNKVTPFSLNRFFLPLEQVEFKLNQLLENLSPDQWSVPAGHRPLRATGSALNIASLLLQGCYKNIPARIILFASGPGTVAPGLIVNSELKDPLRSHHDIDSDHAQHYKKACKFYNQIAQRVAANGHTVDIFAGCYDQIGMSEMKQLTDSTGGVLLLTDAFSTAIFKQSYLRLFAKDEEGYLKMAFNGNMAVKTSKDLKVQGLIGHASAVKKTDANNISESEIGIGATSTWKMASLSPYHSYAIFFEIANTAANSNPMMSAPGSADRPHLAYTQFITTYQHSSGTNRIRVTTVANQLLPFGTPAIAASFDQEAAAVLMARIAVHKAETDDGADVIRWLDRTLIKLCQKYADYNKDDPQSFRLAPNFSLYPQFTYYLRRSQFLSVFNNSPDETAFYRHIFTREDTTNSLIMIQPTLTSFSMEDDPQPVLLDSISVKPNTILLLDTFFFILIYHGEQIAQWRKAGYQDDPQYADFKALLEEPKLEAAELLVDRFPLPRFIDTEAGGSQARFLLSKLNPSDNYQDMARGGSTIVLTDDVSLQNFMTHLQQVAVSGQA
chain 2: MSHHKKRVYPQAQLQYGQNATPLQQPAQFMPPQDPAAAGMSYGQMGMPPQGAVPSMGQQQFLTPAQEQLHQQIDQATTSMNDMHLHNVPLVDPNAYMQPQVPVQMGTPLQQQQQPMAAPAYGQPSAAMGQNMRPMNQLYPIDLLTELPPPITDLTLPPPPLVIPPERMLVPSELSNASPDYIRSTLNAVPKNSSLLKKSKLPFGLVIRPYQHLYDDIDPPPLNEDGLIVRCRRCRSYMNPFVTFIEQGRRWRCNFCRLANDVPMQMDQSDPNDPKSRYDRNEIKCAVMEYMAPKEYTLRQPPPATYCFLIDVSQSSIKSGLLATTINTLLQNLDSIPNHDERTRISILCVDNAIHYFKIPLDSENNEESADQINMMDIADLEEPFLPRPNSMVVSLKACRQNIETLLTKIPQIFQSNLITNFALGPALKSAYHLIGGVGGKIIVVSGTLPNLGIGKLQRRNESGVVNTSKETAQLLSCQDSFYKNFTIDCSKVQITVDLFLASEDYMDVASLSNLSRFTAGQTHFYPGFSGKNPNDIVKFSTEFAKHISMDFCMETVMRARGSTGLRMSRFYGHFFNRSSDLCAFSTMPRDQSYLFEVNVDESIMADYCYVQVAVLLSLNNSQRRIRIITLAMPTTESLAEVYASADQLAIASFYNSKAVEKALNSSLDDARVLINKSVQDILATYKKEIVVSNTAGGAPLRLCANLRMFPLLMHSLTKHMAFRSGIVPSDHRASALNNLESLPLKYLIKNIYPDVYSLHDMADEAGLPVQTEDGEATGTIVLPQPINATSSLFERYGLYLIDNGNELFLWMGGDAVPALVFDVFGTQDIFDIPIGKQEIPVVENSEFNQRVRNIINQLRNHDDVITYQSLYIVRGASLSEPVNHASAREVATLRLWASSTLVEDKILNNESYREFLQIMKARISK

Assays:
Assay in all cases: liposome flotation
Sec23/24p = target: B3
MBP–Sec16p [1] = target: T1, MBP–Sec16p (S. cerevisiae, UniProt P48415 1-2195)
MBP–Sec16p [2] = target: T1, MBP–Sec16p; remark: listed apart in the source

T1 sequence (P48415 whole entry): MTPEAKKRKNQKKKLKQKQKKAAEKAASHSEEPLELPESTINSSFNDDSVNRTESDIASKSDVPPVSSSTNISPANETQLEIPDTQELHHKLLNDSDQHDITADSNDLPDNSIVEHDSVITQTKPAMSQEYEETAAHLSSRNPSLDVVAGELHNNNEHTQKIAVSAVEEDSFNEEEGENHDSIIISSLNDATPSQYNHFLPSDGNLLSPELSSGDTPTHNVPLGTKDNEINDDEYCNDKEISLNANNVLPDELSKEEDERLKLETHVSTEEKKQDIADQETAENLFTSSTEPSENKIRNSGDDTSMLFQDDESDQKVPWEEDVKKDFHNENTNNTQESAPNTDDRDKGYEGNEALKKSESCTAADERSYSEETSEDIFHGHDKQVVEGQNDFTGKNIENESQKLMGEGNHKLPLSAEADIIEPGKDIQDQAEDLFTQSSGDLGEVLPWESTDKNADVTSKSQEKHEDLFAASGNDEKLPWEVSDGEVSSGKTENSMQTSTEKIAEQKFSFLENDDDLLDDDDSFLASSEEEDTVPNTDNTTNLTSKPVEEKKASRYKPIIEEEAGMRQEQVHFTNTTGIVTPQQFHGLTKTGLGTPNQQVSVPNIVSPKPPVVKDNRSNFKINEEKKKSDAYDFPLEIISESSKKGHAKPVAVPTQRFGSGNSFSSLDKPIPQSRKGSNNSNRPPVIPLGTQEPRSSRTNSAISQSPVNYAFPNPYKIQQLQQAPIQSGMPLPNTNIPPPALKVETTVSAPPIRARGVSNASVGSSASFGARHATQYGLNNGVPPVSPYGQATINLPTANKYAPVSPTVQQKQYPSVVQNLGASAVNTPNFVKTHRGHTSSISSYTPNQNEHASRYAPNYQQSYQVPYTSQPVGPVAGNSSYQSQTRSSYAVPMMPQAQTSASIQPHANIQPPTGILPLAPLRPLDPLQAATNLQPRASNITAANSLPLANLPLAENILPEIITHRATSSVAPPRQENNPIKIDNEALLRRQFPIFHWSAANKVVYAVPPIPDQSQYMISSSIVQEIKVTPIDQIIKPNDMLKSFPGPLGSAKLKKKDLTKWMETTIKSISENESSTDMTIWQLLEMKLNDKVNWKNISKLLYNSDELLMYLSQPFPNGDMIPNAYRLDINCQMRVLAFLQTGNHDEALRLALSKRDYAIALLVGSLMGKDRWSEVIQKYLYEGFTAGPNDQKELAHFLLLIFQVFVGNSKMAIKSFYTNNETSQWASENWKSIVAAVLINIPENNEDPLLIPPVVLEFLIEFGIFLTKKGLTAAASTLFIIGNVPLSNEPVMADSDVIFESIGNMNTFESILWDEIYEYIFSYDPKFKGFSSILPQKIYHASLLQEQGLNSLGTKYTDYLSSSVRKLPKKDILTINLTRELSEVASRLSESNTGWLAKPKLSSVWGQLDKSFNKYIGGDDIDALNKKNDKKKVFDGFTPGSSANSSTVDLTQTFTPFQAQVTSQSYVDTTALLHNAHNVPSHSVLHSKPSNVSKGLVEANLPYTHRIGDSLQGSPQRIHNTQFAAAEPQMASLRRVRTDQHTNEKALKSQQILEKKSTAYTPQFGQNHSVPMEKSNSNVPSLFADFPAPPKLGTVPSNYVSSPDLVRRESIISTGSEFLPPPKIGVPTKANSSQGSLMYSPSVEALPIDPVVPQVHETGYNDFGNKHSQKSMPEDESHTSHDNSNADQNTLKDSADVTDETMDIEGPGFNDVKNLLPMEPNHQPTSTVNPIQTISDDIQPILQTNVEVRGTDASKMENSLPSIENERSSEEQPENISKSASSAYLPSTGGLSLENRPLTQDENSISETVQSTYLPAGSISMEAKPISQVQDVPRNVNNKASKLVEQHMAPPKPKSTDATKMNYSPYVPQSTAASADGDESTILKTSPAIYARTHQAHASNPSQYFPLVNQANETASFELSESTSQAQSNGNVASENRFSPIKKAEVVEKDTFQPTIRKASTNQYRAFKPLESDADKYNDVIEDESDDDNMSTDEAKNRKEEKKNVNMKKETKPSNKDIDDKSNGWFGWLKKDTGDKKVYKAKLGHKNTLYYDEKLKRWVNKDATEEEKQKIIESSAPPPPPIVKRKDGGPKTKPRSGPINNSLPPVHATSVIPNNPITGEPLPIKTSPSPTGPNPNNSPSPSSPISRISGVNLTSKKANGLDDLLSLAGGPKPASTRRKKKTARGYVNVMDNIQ

Binder: B1
binding result (Sec23/24p): binds

Binder: B2
binding result (MBP–Sec16p [1]): binds

Binder: B3
binding result (MBP–Sec16p [2]): binds
